{"source": "patent US20130157929A1", "about": "“GLUCAGON ANALOGUES” (ZEALAND PHARMA A/S, published 2013)", "binders": {"B1": {"name": "Compound 21 (peptide)", "peptide": "H-H[Aib][Cit]GTFTSDYSKYLDSK([γGlu-Palmitoyl])AAHDFVEWLLSA-NH2", "SMILES": "CCCCCCCCCCCCCCCC(=O)N[C@@H](CCC(=O)NCCCC[C@H](NC(=O)[C@H](CO)NC(=O)[C@H](CC(=O)O)NC(=O)[C@H](CC(C)C)NC(=O)[C@H](Cc1ccc(O)cc1)NC(=O)[C@H](CCCCN)NC(=O)[C@H](CO)NC(=O)[C@H](Cc1ccc(O)cc1)NC(=O)[C@H](CC(=O)O)NC(=O)[C@H](CO)NC(=O)[C@@H](NC(=O)[C@H](Cc1ccccc1)NC(=O)[C@@H](NC(=O)CNC(=O)[C@H](CCCNC(N)=O)NC(=O)C(C)(C)NC(=O)[C@@H](N)Cc1c[nH]cn1)[C@@H](C)O)[C@@H](C)O)C(=O)N[C@@H](C)C(=O)N[C@@H](C)C(=O)N[C@@H](Cc1c[nH]cn1)C(=O)N[C@@H](CC(=O)O)C(=O)N[C@@H](Cc1ccccc1)C(=O)N[C@H](C(=O)N[C@@H](CCC(=O)O)C(=O)N[C@@H](Cc1c[nH]c2ccccc12)C(=O)N[C@@H](CC(C)C)C(=O)N[C@@H](CC(C)C)C(=O)N[C@@H](CO)C(=O)N[C@@H](C)C(N)=O)C(C)C)C(=O)O"}, "B2": {"name": "Compound 1 (peptide)", "peptide": "H-H[Aib]HGTFTSDYSKYLDSK([γGlu-Palmitoyl])AAHDFVEWLLSA-NH2", "SMILES": "CCCCCCCCCCCCCCCC(=O)N[C@@H](CCC(=O)NCCCC[C@H](NC(=O)[C@H](CO)NC(=O)[C@H](CC(=O)O)NC(=O)[C@H](CC(C)C)NC(=O)[C@H](Cc1ccc(O)cc1)NC(=O)[C@H](CCCCN)NC(=O)[C@H](CO)NC(=O)[C@H](Cc1ccc(O)cc1)NC(=O)[C@H](CC(=O)O)NC(=O)[C@H](CO)NC(=O)[C@@H](NC(=O)[C@H](Cc1ccccc1)NC(=O)[C@@H](NC(=O)CNC(=O)[C@H](Cc1c[nH]cn1)NC(=O)C(C)(C)NC(=O)[C@@H](N)Cc1c[nH]cn1)[C@@H](C)O)[C@@H](C)O)C(=O)N[C@@H](C)C(=O)N[C@@H](C)C(=O)N[C@@H](Cc1c[nH]cn1)C(=O)N[C@@H](CC(=O)O)C(=O)N[C@@H](Cc1ccccc1)C(=O)N[C@H](C(=O)N[C@@H](CCC(=O)O)C(=O)N[C@@H](Cc1c[nH]c2ccccc12)C(=O)N[C@@H](CC(C)C)C(=O)N[C@@H](CC(C)C)C(=O)N[C@@H](CO)C(=O)N[C@@H](C)C(N)=O)C(C)C)C(=O)O"}, "B3": {"name": "Compound 31 (peptide)", "peptide": "H-H[Aib]HGTFTSDYSKYLESK([γGlu-Palmitoyl])AAEEFVEWLLEA-NH2", "SMILES": "CCCCCCCCCCCCCCCC(=O)N[C@@H](CCC(=O)NCCCC[C@H](NC(=O)[C@H](CO)NC(=O)[C@H](CCC(=O)O)NC(=O)[C@H](CC(C)C)NC(=O)[C@H](Cc1ccc(O)cc1)NC(=O)[C@H](CCCCN)NC(=O)[C@H](CO)NC(=O)[C@H](Cc1ccc(O)cc1)NC(=O)[C@H](CC(=O)O)NC(=O)[C@H](CO)NC(=O)[C@@H](NC(=O)[C@H](Cc1ccccc1)NC(=O)[C@@H](NC(=O)CNC(=O)[C@H](Cc1c[nH]cn1)NC(=O)C(C)(C)NC(=O)[C@@H](N)Cc1c[nH]cn1)[C@@H](C)O)[C@@H](C)O)C(=O)N[C@@H](C)C(=O)N[C@@H](C)C(=O)N[C@@H](CCC(=O)O)C(=O)N[C@@H](CCC(=O)O)C(=O)N[C@@H](Cc1ccccc1)C(=O)N[C@H](C(=O)N[C@@H](CCC(=O)O)C(=O)N[C@@H](Cc1c[nH]c2ccccc12)C(=O)N[C@@H](CC(C)C)C(=O)N[C@@H](CC(C)C)C(=O)N[C@@H](CCC(=O)O)C(=O)N[C@@H](C)C(N)=O)C(C)C)C(=O)O"}}, "note": "Starred links: 1 amine or outer side, 2 acyl side, 3 side chain; linkers in the order of their positions; H or OH if unused. Non-standard residues stand in square brackets, D forms with d. Groups on a side chain read outwards from the residue. *: point of attachment. γGlu = O=C(O)[C@H](CCC(=O)[*:2])N[*:1]; Palmitoyl = CCCCCCCCCCCCCCCC(=O)*; 3Pal = N[C@@H](Cc1cccnc1)C(=O)O; Cit = NC(=O)NCCC[C@H](N)C(=O)O; hSer = N[C@@H](CCO)C(=O)O; Aib = CC(C)(N)C(=O)O", "data": [{"target": "human glucagon-like peptide 1 receptor (GLP-1R) (human, UniProt P43220)", "experiment": "cell-based or functional assay", "units": {"EC50 (nM) GLP-1R, cAMP formation": "nM"}, "values": [{"binder": "B1", "EC50 (nM) GLP-1R, cAMP formation": 1.2}, {"binder": "H-H[Aib][3‑(2-furyl)alanyl]GTFTSDYSKYLDSK([γGlu-Palmitoyl])AAHDFVEWLLSA-NH2", "note": "[Compound 22]", "EC50 (nM) GLP-1R, cAMP formation": 0.06}, {"binder": "H-H[Aib][3‑(4-thiazolyl)alanyl]GTFTSDYSKYLDSK([γGlu-Palmitoyl])AAHDFVEWLLSA-NH2", "note": "[Compound 23]", "EC50 (nM) GLP-1R, cAMP formation": 0.11}, {"binder": "H-H[Aib][3Pal]GTFTSDYSKYLDSK([γGlu-Palmitoyl])AAHDFVEWLLSA-NH2", "note": "[Compound 24]", "EC50 (nM) GLP-1R, cAMP formation": 0.14}, {"binder": "H-H[Aib][3‑(1,2,4-triazol-1-yl)alanyl]GTFTSDYSKYLDSK([γGlu-Palmitoyl])AAHDFVEWLLSA-NH2", "note": "[Compound 25]", "EC50 (nM) GLP-1R, cAMP formation": 0.09}, {"binder": "H-H[Aib][3‑(2-thienyl)alanyl]GTFTSDYSKYLDSK([γGlu-Palmitoyl])AAHDFVEWLLSA-NH2", "note": "[Compound 26]", "EC50 (nM) GLP-1R, cAMP formation": 0.08}, {"binder": "B2", "EC50 (nM) GLP-1R, cAMP formation": 0.21}, {"binder": "H-H[Aib][3‑(3-thienyl)alanyl]GTFTSDYSKYLDSK([γGlu-Palmitoyl])AAHDFVEWLLSA-NH2", "note": "[Compound 27]", "EC50 (nM) GLP-1R, cAMP formation": 0.27}, {"binder": "H-H[Aib][3‑(1-pyrazolyl)alanyl]GTFTSDYSKYLDSK([γGlu-Palmitoyl])AAHDFVEWLLSA-NH2", "note": "[Compound 28]", "EC50 (nM) GLP-1R, cAMP formation": 0.11}, {"binder": "H-H[Aib][hSer]GTFTSDYSKYLDSK([γGlu-Palmitoyl])AAHDFVEWLLSA-NH2", "note": "[Compound 29]", "EC50 (nM) GLP-1R, cAMP formation": 0.05}, {"binder": "B3", "EC50 (nM) GLP-1R, cAMP formation": 0.09}]}, {"target": "human glucagon receptor (glucagon-R) (human, UniProt P47871)", "experiment": "cell-based or functional assay", "units": {"EC50 (nM) GluR, cAMP formation": "nM"}, "values": [{"binder": "B1", "EC50 (nM) GluR, cAMP formation": 35}, {"binder": "H-H[Aib][3‑(2-furyl)alanyl]GTFTSDYSKYLDSK([γGlu-Palmitoyl])AAHDFVEWLLSA-NH2", "note": "[Compound 22]", "EC50 (nM) GluR, cAMP formation": 3.8}, {"binder": "H-H[Aib][3‑(4-thiazolyl)alanyl]GTFTSDYSKYLDSK([γGlu-Palmitoyl])AAHDFVEWLLSA-NH2", "note": "[Compound 23]", "EC50 (nM) GluR, cAMP formation": 0.99}, {"binder": "H-H[Aib][3Pal]GTFTSDYSKYLDSK([γGlu-Palmitoyl])AAHDFVEWLLSA-NH2", "note": "[Compound 24]", "EC50 (nM) GluR, cAMP formation": 1.04}, {"binder": "H-H[Aib][3‑(1,2,4-triazol-1-yl)alanyl]GTFTSDYSKYLDSK([γGlu-Palmitoyl])AAHDFVEWLLSA-NH2", "note": "[Compound 25]", "EC50 (nM) GluR, cAMP formation": 0.71}, {"binder": "H-H[Aib][3‑(2-thienyl)alanyl]GTFTSDYSKYLDSK([γGlu-Palmitoyl])AAHDFVEWLLSA-NH2", "note": "[Compound 26]", "EC50 (nM) GluR, cAMP formation": 1.16}, {"binder": "B2", "EC50 (nM) GluR, cAMP formation": 0.26}, {"binder": "H-H[Aib][3‑(3-thienyl)alanyl]GTFTSDYSKYLDSK([γGlu-Palmitoyl])AAHDFVEWLLSA-NH2", "note": "[Compound 27]", "EC50 (nM) GluR, cAMP formation": 1.58}, {"binder": "H-H[Aib][3‑(1-pyrazolyl)alanyl]GTFTSDYSKYLDSK([γGlu-Palmitoyl])AAHDFVEWLLSA-NH2", "note": "[Compound 28]", "EC50 (nM) GluR, cAMP formation": 4.85}, {"binder": "H-H[Aib][hSer]GTFTSDYSKYLDSK([γGlu-Palmitoyl])AAHDFVEWLLSA-NH2", "note": "[Compound 29]", "EC50 (nM) GluR, cAMP formation": 0.79}, {"binder": "B3", "EC50 (nM) GluR, cAMP formation": 0.15}]}]}
